± gives the standard deviation of the averaged measurements.
Test: total protein half-life in vivo (active degradation + dilution); higher = more stable protein
[1] = E. coli NCM3722 delta-clpP delta-lon delta-hslV, growth: N-lim chemostat, doubling time 6 h
[2] = E. coli NCM3722 delta-clpP, growth: N-lim chemostat, doubling time 6 h
[3] = E. coli NCM3722 delta-hslV, growth: N-lim chemostat, doubling time 6 h
[4] = E. coli NCM3722 delta-lon, growth: N-lim chemostat, doubling time 6 h
[5] = E. coli NCM3722 delta-smpB, growth: N-lim chemostat, doubling time 6 h
[6] = wild type E. coli NCM3722, growth: C-lim chemostat, doubling time 3 h
[7] = wild type E. coli NCM3722, growth: C-lim chemostat, doubling time 6 h
[8] = wild type E. coli NCM3722, growth: C-lim chemostat, doubling time 12 h
[9] = wild type E. coli NCM3722, growth: N-lim chemostat, doubling time 6 h
[10] = wild type E. coli NCM3722, growth: N-lim chemostat, doubling time 12 h
[11] = wild type E. coli NCM3722, growth: P-lim chemostat, doubling time 6 h
[12] = wild type E. coli NCM3722, growth: P-lim chemostat, doubling time 12 h

Row | Sequence | total protein half-life in vivo [1] [h] | total protein half-life in vivo [2] [h] | total protein half-life in vivo [3] [h] | total protein half-life in vivo [4] [h] | total protein half-life in vivo [5] [h] | total protein half-life in vivo [6] [h] | total protein half-life in vivo [7] [h] | total protein half-life in vivo [8] [h] | total protein half-life in vivo [9] [h] | total protein half-life in vivo [10] [h] | total protein half-life in vivo [11] [h] | total protein half-life in vivo [12] [h]
1 | MSVMFDPDTAIYPFPPKPTPLSIDEKAYYREKIKRLLKERNAVMVAHYYTDPEIQQLAEETGGCISDSLEMARFGAKHPASTLLVAGVRFMGETAKILSPEKTILMPTLQAECSLDLGCPVEEFNAFCDAHPDRTVVVYANTSAAVKARADWVVTSSIAVELIDHLDSLGEKIIWAPDKHLGRYVQKQTGGDILCWQGACIVHDEFKTQALTRLQEEYPDAAILVHPESPQAIVDMADAVGSTSQLIAAAKTLPHQRLIVATDRGIFYKMQQAVPDKELLEAPTAGEGATCRSCAHCPWMAMNGLQAIAEALEQEGSNHEVHVDERLRERALVPLNRMLDFAATLRG | 3.98 ± 0.16 | 1.78 ± 0.25 | 0.977 ± 0.24 | 1.1 ± 0.098 | 1.08 ± 0.25 | 1.14 ± 0.026 | 1.39 ± 0.083 | 1.8 ± 0.44 | 0.926 ± 0.058 | 1.03 ± 0.097 | 1.26 | 2.48 ± 0.81
2 | MPNIVLSRIDERLIHGQVGVQWVGFAGANLVLVANDEVAEDPVQQNLMEMVLAEGIAVRFWTLQKVIDNIHRAADRQKILLVCKTPADFLTLVKGGVPVNRINVGNMHYANGKQQIAKTVSVDAGDIAAFNDLKTAGVECFVQGVPTEPAVDLFKLL | – | – | – | – | – | 3.26 | 5.07 ± 0.6 | 8.17 | – | – | – | –
3 | MNIIEANVATPDARVAITIARFNNFINDSLLEGAIDALKRIGQVKDENITVVWVPGAYELPLAAGALAKTGKYDAVIALGTVIRGGTAHFEYVAGGASNGLAHVAQDSEIPVAFGVLTTESIEQAIERAGTKAGNKGAEAALTALEMINVLKAIKA | – | 6.4 ± 0.16 | 6.59 ± 0.59 | – | 5.79 ± 0.1 | 3.16 ± 0.054 | 6.41 ± 0.27 | 13.7 ± 0.27 | 6.17 ± 0.85 | 12.8 ± 0.8 | 5.73 ± 0.29 | 13.6 ± 0.3
4 | MNMLALTIILPLIGFVLLAFSRGRWSENVSAIVGVGSVGLAALVTAFIGVDFFANGEQTYSQPLWTWMSVGDFNIGFNLVLDGLSLTMLSVVTGVGFLIHMYASWYMRGEEGYSRFFAYTNLFIASMVVLVLADNLLLMYLGWEGVGLCSYLLIGFYYTDPKNGAAAMKAFVVTRVGDVFLAFALFILYNELGTLNFREMVELAPAHFADGNNMLMWATLMLLGGAVGKSAQLPLQTWLADAMAGPTPVSALIHAATMVTAGVYLIARTHGLFLMTPEVLHLVGIVGAVTLLLAGFAALVQTDIKRVLAYSTMSQIGYMFLALGVQAWDAAIFHLMTHAFFKALLFLASGSVILACHHEQNIFKMGGLRKSIPLVYLCFLVGGAALSALPLVTAGFFSKDEILAGAMANGHINLMVAGLVGAFMTSLYTFRMIFIVFHGKEQIHAHAVKGVTHSLPLIVLLILSTFVGALIVPPLQGVLPQTTELAHGSMLTLEITSGVVAVVGILLAAWLWLGKRTLVTSIANSAPGRLLGTWWYNAWGFDWLYDKVFVKPFLGIAWLLKRDPLNSMMNIPAVLSRFAGKGLLLSENGYLRWYVASMSIGAVVVLALLMVLR | 7.03 ± 0.33 | 7.32 ± 0.33 | 6.62 ± 0.33 | 5.89 ± 0.59 | 6.017 ± 0.032 | 3.23 | 7.19 ± 1.1 | 12.1 ± 1.4 | – | 15.6 | 6.74 ± 0.88 | 11.1 ± 1.1
5 | MKSATSAQRPYQEVGAMIRDLIIKTPYNPGERLPPEREIAEMLDVTRTVVREALIMLEIKGLVEVRRGAGIYVLDNSGSQNTDSPDANVCNDAGPFELLQARQLLESNIAEFAALQATREDIVKMRQALQLEERELASSAPGSSESGDMQFHLAIAEATHNSMLVELFRQSWQWRENNPMWIQLHSHLDDSLYRKEWLGDHKQILAALIKKDARAAKLAMWQHLENVKQRLLEFSNVDDIYFDGYLFDSWPLDKVDA | 4.94 ± 0.91 | 4.94 ± 0.29 | 2.75 ± 0.15 | 3.04 ± 0.38 | 2.82 ± 0.23 | 2.21 ± 0.16 | 3.86 ± 0.058 | 5.88 ± 0.11 | 2.83 | 3.494 ± 0.022 | 3.22 ± 0.098 | 5.72 ± 0.14
6 | MRRELAIEFSRVTESAALAGYKWLGRGDKNTADGAAVNAMRIMLNQVNIDGTIVIGEGEIDEAPMLYIGEKVGTGRGDAVDIAVDPIEGTRMTAMGQANALAVLAVGDKGCFLNAPDMYMEKLIVGPGAKGTIDLNLPLADNLRNVAAALGKPLSELTVTILAKPRHDAVIAEMQQLGVRVFAIPDGDVAASILTCMPDSEVDVLYGIGGAPEGVVSAAVIRALDGDMNGRLLARHDVKGDNEENRRIGEQELARCKAMGIEAGKVLRLGDMARSDNVIFSATGITKGDLLEGISRKGNIATTETLLIRGKSRTIRRIQSIHYLDRKDPEMQVHIL [P0A9C9] | – | 4.69 ± 0.43 | 4.84 ± 0.68 | 4.309 ± 0.04 | 4.27 ± 0.27 | 3.593 ± 0.019 | 5.39 ± 0.19 | 9.84 ± 0.62 | 4.51 ± 0.52 | 7.05 ± 0.25 | 5.75 ± 0.21 | 12 ± 1.2
7 | MNMTKGALILSLSFLLAACSSIPQNIKGNNQPDIQKSFVAVHNQPGLYVGQQARFGGKVINVINGKTDTLLEISVLPLDSYAKPDIEANYQGRLLARQSGFLDPVNYRNHFVTILGTIQGEQPGFINKVPYNFLEVNMQGIQVWHLREVVNTTYNLWDYGYGAFWPEPGWGAPYYTNAVSQVTPELVK | – | 6.72 ± 0.84 | 6.43 ± 0.72 | – | 6.62 ± 0.25 | – | – | 14.6 | – | 12.8 ± 0.086 | 5.75 ± 0.59 | 12.6 ± 1
8 | MVAVRSAHINKAGEFDPEKWIASLGITSQKSCECLAETWAYCLQQTQGHPDASLLLWRGVEMVEILSTLSMDIDTLRAALLFPLADANVVSEDVLRESVGKSVVNLIHGVRDMAAIRQLKATHTDSVSSEQVDNVRRMLLAMVDDFRCVVIKLAERIAHLREVKDAPEDERVLAAKECTNIYAPLANRLGIGQLKWELEDYCFRYLHPTEYKRIAKLLHERRLDREHYIEEFVGHLRAEMKAEGVKAEVYGRPKHIYSIWRKMQKKNLAFDELFDVRAVRIVAERLQDCYAALGIVHTHYRHLPDEFDDYVANPKPNGYQSIHTVVLGPGGKTVEIQIRTKQMHEDAELGVAAHWKYKEGAAAGGARSGHEDRIAWLRKLIAWQEEMADSGEMLDEVRSQVFDDRVYVFTPKGDVVDLPAGSTPLDFAYHIHSDVGHRCIGAKIGGRIVPFTYQLQMGDQIEIITQKQPNPSRDWLNPNLGYVTTSRGRSKIHAWFRKQDRDKNILAGRQILDDELEHLGISLKEAEKHLLPRYNFNDVDELLAAIGGGDIRLNQMVNFLQSQFNKPSAEEQDAAALKQLQQKSYTPQNRSKDNGRVVVEGVGNLMHHIARCCQPIPGDEIVGFITQGRGISVHRADCEQLAELRSHAPERIVDAVWGESYSAGYSLVVRVVANDRSGLLRDITTILANEKVNVLGVASRSDTKQQLATIDMTIEIYNLQVLGRVLGKLNQVPDVIDARRLHGS [P0AG20] | 5.7 ± 0.41 | 5.46 ± 0.31 | 4.65 ± 0.24 | 4.99 ± 0.054 | 4.36 ± 0.23 | 2.68 ± 0.21 | 4.87 ± 0.11 | 8.04 ± 0.43 | 4.74 ± 0.17 | 7.78 ± 0.22 | 4.8 ± 0.23 | 9.13 ± 0.26
9 | MKKVAAFVALSLLMAGCVSNDKIAVTPEQLQHHRFVLESVNGKPVTSDKNPPEISFGEKMMISGSMCNRFSGEGKLSNGELTAKGLAMTRMMCANPQLNELDNTISEMLKEGAQVDLTANQLTLATAKQTLTYKLADLMN | 6.45 ± 1.1 | 6.13 ± 0.01 | 6.52 ± 1.3 | – | 6.01 ± 0.55 | 2.95 ± 0.68 | 5.47 ± 1.1 | 11 ± 0.29 | 6.111 ± 0.014 | 11.5 ± 1.1 | 6 ± 0.54 | 12.9 ± 0.28
10 | MMIKTRFSRWLTFFTFAAAVALALPAKANTWPLPPAGSRLVGENKFHVVENDGGSLEAIAKKYNVGFLALLQANPGVDPYVPRAGSVLTIPLQTLLPDAPREGIVINIAELRLYYYPPGKNSVTVYPIGIGQLGGDTLTPTMVTTVSDKRANPTWTPTANIRARYKAQGIELPAVVPAGLDNPMGHHAIRLAAYGGVYLLHGTNADFGIGMRVSSGCIRLRDDDIKTLFSQVTPGTKVNIINTPIKVSAEPNGARLVEVHQPLSEKIDDDPQLLPITLNSAMQSFKDAAQTDAEVMQHVMDVRSGMPVDVRRHQVSPQTL | 5.73 | 4.84 | – | 6.23 ± 1.4 | 5.56 | 1.51 ± 0.55 | 2.85 ± 0.33 | 4.13 ± 0.68 | 6.17 | 10.5 | 5.17 | 3.45
11 | MQFDYIIIGAGSAGNVLATRLTEDPNTSVLLLEAGGPDYRFDFRTQMPAALAFPLQGKRYNWAYETEPEPFMNNRRMECGRGKGLGGSSLINGMCYIRGNALDLDNWAQEPGLENWSYLDCLPYYRKAETRDMGENDYHGGDGPVSVTTSKPGVNPLFEAMIEAGVQAGYPRTDDLNGYQQEGFGPMDRTVTPQGRRASTARGYLDQAKSRPNLTIRTHAMTDHIIFDGKRAVGVEWLEGDSTIPTRATANKEVLLCAGAIASPQILQRSGVGNAELLAEFDIPLVHELPGVGENLQDHLEMYLQYECKEPVSLYPALQWWNQPKIGAEWLFGGTGVGASNHFEAGGFIRSREEFAWPNIQYHFLPVAINYNGSNAVKEHGFQCHVGSMRSPSRGHVRIKSRDPHQHPAILFNYMSHEQDWQEFRDAIRITREIMHQPALDQYRGREISPGVECQTDEQLDEFVRNHAETAFHPCGTCKMGYDEMSVVDGEGRVHGLEGLRVVDASIMPQIITGNLNATTIMIGEKIADMIRGQEALPRSTAGYFVANGMPVRAKK | 5.76 ± 0.8 | – | – | – | – | – | – | > 16 | 2.75 | – | – | 4.08
12 | MSDSNSRLVYSTETGRIDEPKAAPVRPKGDGVVRIQRQTSGRKGKGVCLITGVDLDDAELTKLAAELKKKCGCGGAVKDGVIEIQGDKRDLLKSLLEAKGMKVKLAGG | 5.12 ± 0.14 | 4.16 | 3.29 ± 0.22 | 4.11 ± 0.81 | 3.04 ± 0.3 | 2.76 ± 0.65 | 4.11 ± 0.38 | 5.29 ± 0.51 | 3.15 | 5.059 ± 0.042 | 3.05 | 5.7 ± 0.6
13 | MKNRTLGSVFIVAGTTIGAGMLAMPLAAAGVGFSVTLILLIGLWALMCYTALLLLEVYQHVPADTGLGTLAKRYLGRYGQWLTGFSMMFLMYALTAAYISGAGELLASSISDWTGISMSATAGVLLFTFVAGGVVCVGTSLVDLFNRFLFSAKIIFLVVMLVLLLPHIHKVNLLTLPLQQGLALSAIPVIFTSFGFHGSVPSIVSYMDGNIRKLRWVFIIGSAIPLVAYIFWQVATLGSIDSTTFMGLLANHAGLNGLLQALREMVASPHVELAVHLFADLALATSFLGVALGLFDYLADLFQRSNTVGGRLQTGAITFLPPLAFALFYPRGFVMALGYAGVALAVLALIIPSLLTWQSRKHNPQAGYRVKGGRPALVVVFLCGIAVIGVQFLIAAGLLPEVG [P0AAD4] | – | – | – | – | 6.48 | – | – | – | – | – | – | –
14 | MTRLTLALDVMGGDFGPSVTVPAALQALNSNSQLTLLLVGNSDAITPLLAKADFEQRSRLQIIPAQSVIASDARPSQAIRASRGSSMRVALELVKEGRAQACVSAGNTGALMGLAKLLLKPLEGIERPALVTVLPHQQKGKTVVLDLGANVDCDSTMLVQFAIMGSVLAEEVVEIPNPRVALLNIGEEEVKGLDSIRDASAVLKTIPSINYIGYLEANELLTGKTDVLVCDGFTGNVTLKTMEGVVRMFLSLLKSQGEGKKRSWWLLLLKRWLQKSLTRRFSHLNPDQYNGACLLGLRGTVIKSHGAANQRAFAVAIEQAVQAVQRQVPQRIAARLESVYPAGFELLDGGKSGTLR | – | 6.24 ± 1.2 | 5.82 ± 0.97 | – | 5.36 ± 0.15 | 2.67 ± 0.076 | 5.52 ± 0.33 | 10.8 ± 1.9 | 5.32 ± 0.21 | 9.51 ± 0.53 | 5.34 ± 0.72 | 8.85 ± 1.9
